Data from IntAct's records for PubMed 15299139.

B1: Axial regulator YABBY 4 (Arabidopsis thaliana (Mouse-ear cress)), Q9LDT3 (parent)
chain: MTKLPNMTTTLNHLFDLPGQICHVQCGFCTTILLVSVPFTSLSMVVTVRCGHCTSLLSVNLMKASFIPLHLLASLSHLDETGKEEVAATDGVEEEAWKVNQEKENSPTTLVSSSDNEDEDVSRVYQVVNKPPEKRQRAPSAYNCFIKEEIRRLKAQNPSMAHKEAFSLAAKNWAHFPPAHNKRAASDQCFCEEDNNAILPCNVFEDHEESNNGFRERKAQRHSIWGKSPFE
partner: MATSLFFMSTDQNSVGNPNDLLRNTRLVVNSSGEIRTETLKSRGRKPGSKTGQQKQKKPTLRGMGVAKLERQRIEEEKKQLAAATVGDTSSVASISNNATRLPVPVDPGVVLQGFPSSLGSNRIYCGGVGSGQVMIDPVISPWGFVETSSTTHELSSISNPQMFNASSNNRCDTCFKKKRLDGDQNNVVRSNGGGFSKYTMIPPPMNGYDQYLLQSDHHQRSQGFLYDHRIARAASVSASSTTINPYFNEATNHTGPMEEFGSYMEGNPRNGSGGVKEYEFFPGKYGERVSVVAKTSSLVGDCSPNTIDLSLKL

Variants of: B1
Details: with spl_arath SPL

| effect of a mutation on the interaction | Variant |
| --- | --- |
| decreasing interaction | C29S |
